# According to article PMC12442068:
# Target: recombinant TMPRSS2 (UniProt O15393)
# Assay: enzyme inhibition kinetics (progress curve method); TMPRSS2 mixed with increasing SB3 (0-10 uM), fluorescent substrate Z-Gly-Gly-Arg-AMC, TBS pH 7.6, 25 °C, 300 s; Camostat mesylate as reference inhibitor
substance,measurement,value
"recombinant SerpinB3 protein, wild type (from UniProt P29508 1-390) (natural protein)","dissociation constant, fold against Camostat",6 times lower
